We go through nine substances from patent US20040106198A1, “Inhibition of peptide cleavage in plants” (LARGE SCALE BIOLOGY CORPORATION, priority 2002, published 2004).

In the assay the target is Nicotianalisin (Nicotiana benthamiana subtilisin-like serine protease) (Nicotiana benthamiana). The assay can be described thus: cell-based or functional assay.
Sequence of Nicotianalisin (Nicotiana benthamiana subtilisin-like serine protease) (Nicotiana benthamiana) (chain, as listed by the source limits assumed): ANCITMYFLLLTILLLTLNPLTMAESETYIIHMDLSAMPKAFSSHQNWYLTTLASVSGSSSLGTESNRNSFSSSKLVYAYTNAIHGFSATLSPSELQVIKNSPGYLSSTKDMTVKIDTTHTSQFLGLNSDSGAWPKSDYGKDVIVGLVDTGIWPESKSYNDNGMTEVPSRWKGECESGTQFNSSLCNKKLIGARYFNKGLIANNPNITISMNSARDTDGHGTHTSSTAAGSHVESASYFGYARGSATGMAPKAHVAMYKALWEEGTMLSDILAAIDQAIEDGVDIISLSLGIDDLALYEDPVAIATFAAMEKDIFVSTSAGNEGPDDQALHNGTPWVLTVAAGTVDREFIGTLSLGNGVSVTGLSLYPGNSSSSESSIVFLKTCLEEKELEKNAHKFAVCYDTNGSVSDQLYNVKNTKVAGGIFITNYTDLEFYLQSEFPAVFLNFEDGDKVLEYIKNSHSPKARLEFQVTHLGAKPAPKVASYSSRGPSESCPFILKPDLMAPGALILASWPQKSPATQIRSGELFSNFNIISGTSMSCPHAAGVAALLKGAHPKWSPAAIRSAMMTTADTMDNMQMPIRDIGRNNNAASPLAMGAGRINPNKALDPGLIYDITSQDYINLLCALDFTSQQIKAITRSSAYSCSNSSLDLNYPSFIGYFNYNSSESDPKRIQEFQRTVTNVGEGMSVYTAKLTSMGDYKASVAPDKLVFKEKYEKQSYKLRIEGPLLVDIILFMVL
For the substance Amastatin (peptide), the % Inhibition of protease activity in IF (hydrolysis of 0.3 mM N-Suc-AAPL-p-NA after 30 min with inhibitor at 24 C) amounted to 5%. The same measure for Antipain (peptide): 77%. The same measure for Chymostatin (peptide): 100%. For Cystain the value was 2%; for Elastinal (peptide), 41%. In turn, Leupeptin (peptide) yielded a % Inhibition of protease activity in IF (hydrolysis of 0.3 mM N-Suc-AAPL-p-NA after 30 min with inhibitor at 24 C) of 18%. Pepstatin A (peptide) returned a % Inhibition of protease activity in IF (hydrolysis of 0.3 mM N-Suc-AAPL-p-NA after 30 min with inhibitor at 24 C) of 6%. The same measure for pI-II: 2%; for potato protease inhibitor I: 30%.
